Results published in publication PMC4169570, “Acyl-Homoserine Lactone Recognition and Response Hindering the Quorum-Sensing Regulator EsaR”.

What was measured:
Conditions in all cases: protein: recombinant; tags: N-terminal His6-MBP-TEV-Gly5; chain copies: 2; label: 5' TAMRA on strand 1; blunt
[1] = molecular target: T1, HMGE A32V (Pantoea stewartii subsp. stewartii, UniProt P54293 1-249, A32V); assay: fluorescence anisotropy; no AHL; 150 mM NaCl, 6 mM HEPES, 17.5 mM Tris, 3% glycerol, pH 7.6, 25 C, 20 min; 3 nM T-esabox, 0-100 nM protein
T1 sequence: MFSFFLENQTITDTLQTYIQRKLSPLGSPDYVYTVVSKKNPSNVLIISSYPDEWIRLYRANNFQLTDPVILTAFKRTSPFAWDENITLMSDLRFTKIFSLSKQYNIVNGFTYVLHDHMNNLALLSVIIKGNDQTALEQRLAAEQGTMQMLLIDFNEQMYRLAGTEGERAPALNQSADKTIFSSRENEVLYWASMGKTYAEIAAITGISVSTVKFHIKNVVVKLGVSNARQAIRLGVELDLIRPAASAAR

[2] = molecular target: T2, HMGE (His6-MBP-TEV-Gly5-EsaR wild type) (Pantoea stewartii subsp. stewartii, UniProt P54293 1-249); assay: as above
T2 sequence: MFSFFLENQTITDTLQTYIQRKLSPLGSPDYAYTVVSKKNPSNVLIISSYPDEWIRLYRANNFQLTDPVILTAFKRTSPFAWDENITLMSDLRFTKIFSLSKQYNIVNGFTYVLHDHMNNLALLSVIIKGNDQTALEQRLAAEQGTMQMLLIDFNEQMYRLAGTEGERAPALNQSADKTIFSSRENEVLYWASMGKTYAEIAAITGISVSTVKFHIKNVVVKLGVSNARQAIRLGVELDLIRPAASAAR

[3] = molecular target: T3, HMGE D83E (Pantoea stewartii subsp. stewartii, UniProt P54293 1-249, D83E); assay: as above
T3 sequence: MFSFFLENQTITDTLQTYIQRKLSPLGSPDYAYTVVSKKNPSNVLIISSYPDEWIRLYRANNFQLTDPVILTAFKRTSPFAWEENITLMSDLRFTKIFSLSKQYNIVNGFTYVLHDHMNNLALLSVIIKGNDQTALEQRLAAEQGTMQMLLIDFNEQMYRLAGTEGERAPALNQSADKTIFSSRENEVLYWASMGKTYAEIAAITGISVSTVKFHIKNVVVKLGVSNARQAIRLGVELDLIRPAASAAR

[4] = molecular target: T4, HMGE F94Y (Pantoea stewartii subsp. stewartii, UniProt P54293 1-249, F94Y); assay: as above
T4 sequence: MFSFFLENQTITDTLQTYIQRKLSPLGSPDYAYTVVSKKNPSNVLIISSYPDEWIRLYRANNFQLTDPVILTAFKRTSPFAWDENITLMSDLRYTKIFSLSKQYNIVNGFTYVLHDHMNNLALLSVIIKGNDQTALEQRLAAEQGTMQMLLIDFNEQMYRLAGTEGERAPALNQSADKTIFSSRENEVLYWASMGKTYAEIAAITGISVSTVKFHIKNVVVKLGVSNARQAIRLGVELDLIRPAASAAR

[5] = molecular target: T1, HMGE A32V; assay: fluorescence anisotropy; 1 uM AHL; 150 mM NaCl, 6 mM HEPES, 17.5 mM Tris, 3% glycerol, pH 7.6, 25 C, 20 min; 3 nM T-esabox, 0-100 nM protein
[6] = molecular target: T2, HMGE (His6-MBP-TEV-Gly5-EsaR wild type); assay: as above
[7] = molecular target: T3, HMGE D83E; assay: as above
[8] = molecular target: T4, HMGE F94Y; assay: as above

B1: T-esabox (PesaR28 TAMRA/PesaR28R) (dsDNA)
DNA 1: TCTTGCCTGTACTATAGTGCAGGTTAAG
DNA 2: CTTAACCTGCACTATAGTACAGGCAAGA
B1 was tested. Which Kd [1] did it give?
Its Kd is 2.18 ± 0.73 nM.

And the Kd [2]?
Its Kd is 3.11 ± 0.33 nM.

And the Kd [3]?
The Kd was 4.01 ± 1.13 nM.

And the Kd [4]?
Its Kd is 3.26 ± 0.93 nM.

And the Kd [5]?
Its Kd is 2.33 ± 1.06 nM.

What about the Kd [6] of the same binder?
Its Kd is 6.19 ± 1.31 nM.

What about the Kd [7] of the same binder?
Its Kd is 2.91 ± 0.58 nM.

What about the Kd [8] of the same binder?
Its Kd is 2.65 ± 1.03 nM.
